US20040038369A1, “Airway-specific trypsin-like enzymes and method of using the same” (priority 2000, published 2004)

System: NCI-H292 cells
Assay: AB-PAS staining of mucus glycoprotein in NCI-H292 cells
Format: cell-based, human
Conditions: FIG. 1 and 2
Method: NCI-H292 cells (human pulmonary mucoepidermoid tumor cell strain, purchased from ATCC) were suspended in 10% FCS (Fetal Calf Serum)-containing RPMI-1640 (produced by Gibco Corp.), sowed on a Lab-Tek 8 well chamber slide (produced by Nunc Corp.) in a density of 6.0×10^4 cells/cm^2, cultured for 72 hours, subjected to the replacement of the culture solution by RPMI-1640 containing 0.1% of BSA, and further cultured for 24 hours.
On the day of the treatment, the culture solution of each well was replaced by RPMI-1640 (containing 0.1% BSA) containing EGF (5 ng/mL, produced by Becton Dickinson Corp.), HB-EGF (5 ng/mL, produced by R & D Corp.), TGF-α (5 ng/mL, produced by Peprotech Corp.), or PBS to start the treatment. Then, the cells were incubated at 37° C. for 24 hours.
After the prescribed 24 hours treatment, the culture supernatant was removed. The residue was once washed with PBS, mixed with 4% paraformaldehyde/PBS, and then allowed to stand at room temperature for one hour to immobilize the cells. The immobilized cells were twice washed with Milli Q water and then stained with AB-PAS. The staining was carried out according to a book (“All of new dyeing methods” p136-150 (Iyaku Shuppansha)). […]

B1: EGF: Epidermal Growth Factor, EGFR ligand, produced by Becton Dickinson Corp. (protein)
chain: PQHWSCPEGTLAGNGNSTCVGPAPFLIFSHGNSIFRIDTEGTNYEQLVVDAGVSVIMDFHYNEKRIYWVDLERQLLQRVFLNGSRQERVCNIEKNVSGMAINWINEEVIWSNQQEGIITVTDMKGNNSHILLSALKYPANVAVDPVERFIFWSSEVAGSLYRADLDGVGVKALLETSEKITAVSLDVLDKRLFWIQYNREGSNSLICSCDYDGGSVHISKHPTQHNLFAMSLFGDRIFYSTWKMKTIWIANKHTGKDMVRINLHSSFVPLGELKVVHPLAQPKAEDDTWEPEQKLCKLRKGNCSSTVCGQDLQSHLCMCAEGYALSRDRKYCEDVNECAFWNHGCTLGCKNTPGSYYCTCPVGFVLLPDGKRCHQLVSCPRNVSECSHDCVLTSEGPLCFCPEGSVLERDGKTCSGCSSPDNGGCSQLCVPLSPVSWECDCFPGYDLQLDEKSCAASGPQPFLLFANSQDIRHMHFDGTDYGTLLSQQMGMVYALDHDPVENKIYFAHTALKWIERANMDGSQRERLIEEGVDVPEGLAVDWIGRRFYWTDRGKSLIGRSDLNGKRSKIITKENISQPRGIAVHPMAKRLFWTDTGINPRIESSSLQGLGRLVIASSDLIWPSGITIDFLTDKLYWCDAKQSVIEMANLDGSKRRRLTQNDVGHPFAVAVFEDYVWFSDWAMPSVMRVNKRTGKDRVRLQGSMLKPSSLVVVHPLAKPGADPCLYQNGGCEHICKKRLGTAWCSCREGFMKASDGKTCLALDGHQLLAGGEVDLKNQVTPLDILSKTRVSEDNITESQHMLVAEIMVSDQDDCAPVGCSMYARCISEGEDATCQCLKGFAGDGKLCSDIDECEMGVPVCPPASSKCINTEGGYVCRCSEGYQGDGIHCLDIDECQLGEHSCGENASCTNTEGGYTCMCAGRLSEPGLICPDSTPPPHLREDDHHYSVRNSDSECPLSHDGYCLHDGVCMYIEALDKYACNCVVGYIGERCQYRDLKWWELRHAGHGQQQKVIVVAVCVVVLVMLLLLSLWGAHYYRTQKLLSKNPKNPYEESSRDVRSRRPADTEDGMSSCPQPWFVVIKEHQDLKNGGQPVAGEDGQAADGSMQPTSWRQEPQLCGMGTEQGCWIPVSSDKGSCPQVMERSFHMPSYGTQTLEGGVEKPHSLLSANPLWQQRALDPPHQMELTQ
production of the mucus glycoprotein: promoted
